Here are results for 15 molecules from US20250296971A1, “GASTRIC INHIBITORY PEPTIDE RECEPTOR LIGANDS” (priority 2021, published 2025).

*1 amine or outer side, *2 acyl side, *3 side chain or, on linkers, in order; H or OH if unused. Bridges are numbered along the chain shown (N, C = ends). Primed or numbered codes have the meaning given here. Where no end group is shown, it is not given here. [ ]: non-standard residue; d: D form. The star is where a group is joined. (dE)(AGLU) = D-glutamic acid bearing 1-amino-1-deoxy-D-glucitol; APAc″ = 4-amino-1-carboxymethylpiperidine, NC1CCN(CC(=O)*)CC1; dE(AGLU) = D-glutamic acid bearing 1-amino-1-deoxy-D-glucitol; Pro(trans-4-NH2) = O=C([C@@H]1C[C@@H](N[*:3])CN1[*:1])[*:2]; DOTA = O=C(O)CN1CCN(CC(=O)O)CCN(CC(=O)*)CCN(CC(=O)O)CC1; N4Ac = bis-(2-amino-ethylamine)-methyl-propionic acid; 2Lut = 2,6-lutidylidene bridge between two thiols; Trp(5-Cl) = N[C@@H](Cc1c[nH]c2ccc(Cl)cc12)C(=O)O; Pyridine(2,6-diCH2) = c1cc(C[*:1])nc(C[*:2])c1; 2Lut″ = 2,6-lutidylidene linking two thiols; APAc = 4-amino-1-carboxymethylpiperidine; mXylylene = c1cc(C[*:1])cc(C[*:2])c1; Glutaryl = O=C(CCCC(=O)[*:2])[*:1]; PEG6 = NCCOCCOCCOCCOCCOCCOCCC(=O)O; AGLU = 1-amino-1-deoxy-D-glucitol; Hyp = O=C(O)[C@@H]1C[C@@H](O)CN1; dGlu(AGLU) = not defined here; Aic = NC1(C(=O)O)Cc2ccccc2C1; hCys = N[C@@H](CCS)C(=O)O; hSer = N[C@@H](CCO)C(=O)O; Ac5c = NC1(C(=O)O)CCCC1; Api = NC1(C(=O)O)CCNCC1; Thp = NC1(C(=O)O)CCOCC1; AEEA = NCCOCCOCC(=O)O; Aib = CC(C)(N)C(=O)O

This experiment deals with human Gastric Inhibitory Peptide Receptor (human) (UniProt P48546). Description: FACS competition with GIP-057 on CHO-K1-hGIPR cells; pIC50 category A: >8.0.
Sequence of human Gastric Inhibitory Peptide Receptor (human) (P48546 22-466 limits assumed): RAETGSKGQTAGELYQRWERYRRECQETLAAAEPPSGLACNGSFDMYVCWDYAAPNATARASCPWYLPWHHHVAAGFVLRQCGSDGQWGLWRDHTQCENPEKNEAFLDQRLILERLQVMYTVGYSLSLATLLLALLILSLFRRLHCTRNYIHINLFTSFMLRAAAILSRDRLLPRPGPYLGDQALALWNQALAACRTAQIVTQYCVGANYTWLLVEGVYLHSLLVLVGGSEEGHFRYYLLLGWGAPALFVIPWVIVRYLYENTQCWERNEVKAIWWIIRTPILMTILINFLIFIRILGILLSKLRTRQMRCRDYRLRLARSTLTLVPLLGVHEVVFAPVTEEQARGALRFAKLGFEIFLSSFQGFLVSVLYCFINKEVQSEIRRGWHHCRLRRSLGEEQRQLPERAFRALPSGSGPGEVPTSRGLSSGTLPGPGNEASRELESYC

B1: DOTA-glu(AGLU)-O2Oc-Asp-Trp-5Clw-Tap-Glu-leu-[Cys(2Lut)-Thp-Leu-Ile-Cys]-APAc-glu(AGLU)-NH2 (peptide)
peptide: {DOTA-dGlu(AGLU)-AEEA}-DW[Trp(5-Cl)][Pro(trans-4-NH2)]E[dL]C[Thp]LIC-{APAc-dGlu(AGLU)-NH2}
modifications: linker 7-11 via 2Lut; reading uncertain
For B1, the pIC50 was > 8 pic50.

B2: DOTA-glu(AGLU)-PEG6-Asp-Trp-5Clw-Tap-Glu-leu-[Cys(2Lut)-Thp-Leu-Ile-Cys]-APAc-glu(AGLU)-NH2 (peptide)
peptide: {DOTA-dGlu(AGLU)-PEG6}-DW[Trp(5-Cl)][Pro(trans-4-NH2)]E[dL]C[Thp]LIC-{APAc-dGlu(AGLU)-NH2}
modifications: linker 7-11 via 2Lut; reading uncertain
As to B2, the pIC50 was > 8 pic50.

B3: Ac-Asp-Trp-5Clw-Hyp-Glu-leu-[Hcy(2Lut)-Thp-Leu-Ile-Hcy]-NH2 (peptide)
peptide: Ac-DW[Trp(5-Cl)][Hyp]E[dL][hCys][Thp]LI[hCys]-NH2
modifications: linker 7-11 via Pyridine(2,6-diCH2)
For the molecule B3, the pIC50 was > 8 pic50.

B4: HO-Succinyl-Trp-5Clw-Tap-Glu-leu-[Cys(2Lut)-Apc(DOTA)-Leu-Ile-Cys]-APAc-glu(AGLU)-NH2 (peptide)
peptide: W[Trp(5-Cl)][Pro(trans-4-NH2)]E[dL]C[Api](DOTA)LIC-{APAc-dE(AGLU)-NH2}
modifications: linker 6-10 via 2Lut; not fully specified (N-terminus)
On to B4, for which the pIC50 was > 8 pic50.

B5: AGLU-Glutar-APAc-Asp-Trp-5Clw-Hyp-Glu-leu-[Cys(2Lut)-Apc(DOTA)-Leu-Ile-Cys]-glu(AGLU)-NH2 (peptide)
peptide: {AGLU-Glutaryl-APAc″}-DW[Trp(5-Cl)][Hyp]E[dL]C[Api](DOTA)LIC-{dE(AGLU)-NH2}
modifications: linker 7-11 via Pyridine(2,6-diCH2)
With B5, the pIC50 is > 8 pic50.

B6: Ac-Gln-Trp-5Clw-Hyp-Glu-leu-[Cys(2Lut)-Thp-Leu-Ile-Cys]-NH2 (peptide)
peptide: Ac-QW[Trp(5-Cl)][Hyp]E[dL]C[Thp]LIC-NH2
modifications: linker 7-11 via 2Lut″
On to B6, for which the pIC50 is > 8 pic50.

B7: Ac-Asp-Trp-5Clw-Hyp-Glu-leu-[Cys(2Lut)-Eca-Leu-Ile-Cys]-NH2 (peptide)
peptide: Ac-DW[Trp(5-Cl)][Hyp]E[dL]C[Ac5c]LIC-NH2
modifications: linker 7-11 via Pyridine(2,6-diCH2)
With B7, the pIC50 is > 8 pic50.

B8: DOTA-PEG6-glu(AGLU)-Asp-Trp-5Clw-Tap-Glu-leu-[Cys(2Lut)-Thp-Leu-Ile-Cys]-APAc-glu(AGLU)-NH2 (peptide)
peptide: DW[Trp(5-Cl)][Pro(trans-4-NH2)]E[dL]C[Thp]LIC-{APAc-(dE)(AGLU)-NH2}
modifications: linker 7-11 via Pyridine(2,6-diCH2); not fully specified (N-terminus); printed as DOTA-PEG6-glu(AGLU)-Asp-Trp-5Clw-Tap-Glu-leu-[Cys(2Lut)-Thp-Leu-Ile-Cys]-APAc-glu(AGLU)-NH2
Consider B8, for which the pIC50 was > 8 pic50.

B9: HO-Succinyl-Trp-5Clw-Pro-Glu-leu-[Cys(3MeBn)-Aib-Leu-Ile-Cys]-NH2 (peptide)
peptide: W[Trp(5-Cl)]PE[dL]C[Aib]LIC-NH2
modifications: linker 6-10 via mXylylene; not fully specified (N-terminus); printed as HO-Succinyl-Trp-5Clw-Pro-Glu-leu-[Cys(3MeBn)-Aib-Leu-Ile-Cys]-NH2
With B9, the pIC50 is > 8 pic50.

B10: AGLU-Glutar-Asp-Trp-5Clw-Tap-Glu-leu-[Cys(2Lut)-Apc(N4Ac)-Leu-Ile-Cys]-APAc-glu(AGLU)-NH2 (peptide)
peptide: {AGLU-Glutaryl}-DW[Trp(5-Cl)][Pro(trans-4-NH2)]E[dL]C[Api](N4Ac)LIC-{APAc-dE(AGLU)-NH2}
modifications: linker 7-11 via Pyridine(2,6-diCH2)
For the molecule B10, the pIC50 was > 8 pic50.

B11: AGLU-Glutar-Hse-Trp-5Clw-Tap-Glu-leu-[Cys(2Lut)-Apc(DOTA)-Leu-Ile-Cys]-APAc-glu(AGLU)-NH2 (peptide)
peptide: {AGLU-Glutaryl}-[hSer]W[Trp(5-Cl)][Pro(trans-4-NH2)]E[dL]C[Api](DOTA)LIC-{APAc-dE(AGLU)-NH2}
modifications: linker 7-11 via Pyridine(2,6-diCH2)
On to B11, for which the pIC50 was > 8 pic50.

B12: Ac-Asp-Trp-5Clw-Hyp-Asn-leu-[Cys(2Lut)-Thp-Leu-Ile-Cys]-NH2 (peptide)
peptide: Ac-DW[Trp(5-Cl)][Hyp]N[dL]C[Thp]LIC-NH2
modifications: linker 7-11 via Pyridine(2,6-diCH2)
Turning to B12, the pIC50 is > 8 pic50.

B13: Ac-Glu-Trp-5Clw-Hyp-Glu-leu-[Cys(2Lut)-Thp-Leu-Ile-Cys]-NH2 (peptide)
peptide: Ac-EW[Trp(5-Cl)][Hyp]E[dL]C[Thp]LIC-NH2
modifications: linker 7-11 via Pyridine(2,6-diCH2)
SMILES: CC[C@H](C)[C@@H]1NC(=O)[C@H](CC(C)C)NC(=O)C2(CCOCC2)NC(=O)[C@@H](NC(=O)[C@@H](CC(C)C)NC(=O)[C@H](CCC(=O)O)NC(=O)[C@@H]2C[C@@H](O)CN2C(=O)[C@H](Cc2c[nH]c3ccc(Cl)cc23)NC(=O)[C@H](Cc2c[nH]c3ccccc23)NC(=O)[C@H](CCC(=O)O)NC(C)=O)CSCc2cccc(n2)CSC[C@@H](C(N)=O)NC1=O
Consider B13, for which the pIC50 was > 8 pic50.

B14: Ac-Asp-Trp-5Clw-Hyp-Glu-leu-[Cys(2Lut)-Aic-Leu-Ile-Cys]-NH2 (peptide)
peptide: Ac-DW[Trp(5-Cl)][Hyp]E[dL]C[Aic]LIC-NH2
modifications: linker 7-11 via Pyridine(2,6-diCH2)
B14: the pIC50 is > 8 pic50.

B15: Ac-Hse-Trp-5Clw-Hyp-Glu-leu-[Cys(2Lut)-Thp-Leu-Ile-Cys]-NH2 (peptide)
peptide: Ac-[hSer]W[Trp(5-Cl)][Hyp]E[dL]C[Thp]LIC-NH2
modifications: linker 7-11 via Pyridine(2,6-diCH2)
SMILES: CC[C@H](C)[C@@H]1NC(=O)[C@H](CC(C)C)NC(=O)C2(CCOCC2)NC(=O)[C@@H](NC(=O)[C@@H](CC(C)C)NC(=O)[C@H](CCC(=O)O)NC(=O)[C@@H]2C[C@@H](O)CN2C(=O)[C@H](Cc2c[nH]c3ccc(Cl)cc23)NC(=O)[C@H](Cc2c[nH]c3ccccc23)NC(=O)[C@H](CCO)NC(C)=O)CSCc2cccc(n2)CSC[C@@H](C(N)=O)NC1=O
Regarding B15, the pIC50 was > 8 pic50.
